Measured values taken from PMC3153611.

Target: SRPK1 (UniProt Q96SB4)
Assay: rapid quench single-turnover, fast-phase amplitude
Conditions: reference: 0P complex (no pre-phosphorylation)

| other: fast-phase amplitude αp at 1 µM SRPK1 | Substance |
| --- | --- |
| same; reference 1.0 ± 0.18 | SRSF1 (aka ASF/SF2) (from UniProt Q07955) 1P complex (1.2 phosphates in RS1) |
| same; reference 1.0 ± 0.18 | SRSF1 (aka ASF/SF2) (from UniProt Q07955) 4P complex (4 phosphates in RS1) |
| weaker; reference 1.0 ± 0.18 | SRSF1 (aka ASF/SF2) (from UniProt Q07955) 6P complex (6.3 phosphates in RS1) |
| weaker; reference 1.0 ± 0.18 | SRSF1 (aka ASF/SF2) (from UniProt Q07955) 8P complex (8.3 phosphates in RS1) |
